{"source": "the nanobody polyreactivity screen of Harvey et al. (2022)", "data": [{"experiment": "yeast display, Sf9 membrane polyspecificity reagent, FACS + sequencing; frameworks hold sequencing errors", "outline": "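Genes from sorted yeast were amplified by colony PCR, read by MiSeq 2 × 250 sequencing and filtered on CDR length. These cells carried a synthetic nanobody library in Saccharomyces cerevisiae BJ5465 and were sorted by FACS into low and high (top ~1%) gates on anti-HA and streptavidin fluorescence. Polyreactivity is labelled according to the gate of origin.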", "values": [{"sequence": "QVQLVESGGGLVQAGGSLRLSCAASGSTFYPNAMGWYRQAPGKERELVAAISRGTRTKYADSVKGRFTISRDNAMNTVYLQMNSLKPEDTAVYYCAADTGTGLDWGQGTQVTVSS", "polyreactivity (PSR sort gate)": "high polyreactivity"}, {"sequence": "QVQLVESGGGLVQAGGSLRLSCAASGSTFYVNAMGWYRQAPGKDRELVAVISTGGSTYYADSVKGRFTISRDNAKNTVYLQMNSLKPEDTAVYYCAKRDLPDRSGTPNVIPFDYWGQGTQVTVSS", "polyreactivity (PSR sort gate)": "low polyreactivity"}, {"sequence": "QVQLVESGGGLVQAGGSLRLSCAASGSIFYNYGMGWYRQAAGKEGELVAAIRASGDSTYYADSVKGRFTISRDNAKNTLYLQINSQKPEDTAVYYCAARPNQSYNGLYYYWGQGTQVTVSS", "polyreactivity (PSR sort gate)": "low polyreactivity"}, {"sequence": "QLQLVESGGGLVQAGGRLRLSCAASGLNFYDNMGWYRQPPGKEREFVAAISSSGGSTSYADSVKGRFTISRDNAKNTVYLQMNSLKPEDRAVYYCAADSYPAYLGFVGFDYWGQGTQVTVSS", "polyreactivity (PSR sort gate)": "low polyreactivity"}, {"sequence": "QVQLVESGGGLVQAGGSLRLSCAPSGFTFLKNAMGWYRQAPGKERELVAAITGSGGSTYYADSVKGRFTISRDTEKNTVYLQMYSLKPEDTAVYYCNVRRGLRDYEYWGQGTQVTVSS", "polyreactivity (PSR sort gate)": "high polyreactivity"}, {"sequence": "QVQLVESGGGIVQAGGSLRLSSAASGRIFRYYAMGWYRQAPGKERQLVAAISGSGGITYYADSVKGRFTISRDNAKNTVYLQLNRLKPEDTAVYYCAARYGIRPSVSGGYWGQGTQVTVSS", "polyreactivity (PSR sort gate)": "high polyreactivity"}, {"sequence": "QVQLVESGGGLVQAGGSLRLSCAASGSTFATNAMGWYRQAPGKERELVAAIRRGGGTYYADSVKGRFTISRDNAKNTVYLQMNSLKPEDTAVYYCAALYGGRRPYEYWGQGTQVTVSS", "polyreactivity (PSR sort gate)": "high polyreactivity"}, {"sequence": "QVQLVESGGGLVQAGGSLRLSCAASGLTFSKYVMGWYRQAPGKERELVAGISRSSGSTYYADSVKGRFTISRDNAKNTVYLQMNSLKPEDTAVYYCAARARRKYDYWGQGTQVTVSS", "polyreactivity (PSR sort gate)": "high polyreactivity"}, {"sequence": "QVQLVESGGGLVQAGGSLRLSCAASGFTIYGNAMGWSRQAPGKERELVAAITWRGGSTYYADSVKGRFTISRDNAKNTVYLQMNSLKPEDTAVYYCAARWLLGYYRYDYWGQGTQVTVSS", "polyreactivity (PSR sort gate)": "high polyreactivity"}, {"sequence": "QVQLVESGGGLVQAGGSLRLSCAASGSTFVIYAMGWYIQAPGKERELVAAINSGVSTYADSVKGRFTISRDNAKNTVYLQMNSLKPEDTAVYYCNAVSRPPYGPVFSAPAGGSWGQGTQVTVSS", "polyreactivity (PSR sort gate)": "low polyreactivity"}, {"sequence": "QVHLEESGGGLVQAGGSLRLSCAASGRIPFYAMGWYRQAPGKEREFVAAIRFSGGSTFYADSVKGRFTISRDNAKNTVYLQMNSLTPEDTAVYYCAAYLYYPFYWWRDYCGQGTQVTVSS", "polyreactivity (PSR sort gate)": "high polyreactivity"}, {"sequence": "QVQLVESGGGLVQAGGSLRLSCAASGSTLSLYAMGWYRQAPGKERELVAAITSSGGTYYADSVKGRFTISRDNAKNTVYLQMNSLKPEDTAVYYCNAYAKDARSYGYHRVNYWGQGTQVTVSS", "polyreactivity (PSR sort gate)": "high polyreactivity"}, {"sequence": "QVQLVESAGGLVQAGGSLRLSCAATGLIFKYYAMVWYRQAPGKEREMVATITRGGGSTYYADSVKGRFTISRDNAKNTVYFQMNSLKPEDTAVYYCAKRTSWKYGYWGQGTQVTVSS", "polyreactivity (PSR sort gate)": "high polyreactivity"}, {"sequence": "QVQHVESGGGLVQAGGSLRLSCAASGSTFSPNAMGWYRQAPGKERELVAAIRWRTGTTYYADSVKGRFTISRDNAKNTVYLQMNSLKPEDTAVYYCAAVYKPPNNKYGSAWEYGYWGQGTQVTVSS", "polyreactivity (PSR sort gate)": "high polyreactivity"}, {"sequence": "QVQLVESGGGLGQAGGSLRLSCAASGYTFGKYAMGWYRPAPGKERELVAAISWSGGSTYYADSVKGRFTISRDNAKNTVYLQMNSLKPEDTAVYYCNIGYIGRYGYWGQGTQVTVSS", "polyreactivity (PSR sort gate)": "high polyreactivity"}, {"sequence": "QVQLVESGGGLVQAGGSLRLSCAASGFIIQGNALGWYRQAPGTERELVAAISSSVSTYYADSVKGRFTISRDNAKNTVYLQMNSLKPEDNAVYDCNAGFPLSLWLGDYWGQGTLVTVSS", "polyreactivity (PSR sort gate)": "low polyreactivity"}, {"sequence": "QVQLVESGGGLVQAGGSLRLSCAASGGIIDWYVMGWYRQAPGKERELVAAISYNGGATYYADSVKGRFTISRDNAKNTVYLQMNSLKPEDTAVYYCAAGVTWPYRYVWYVYWGQGTQVTVSS", "polyreactivity (PSR sort gate)": "low polyreactivity"}]}]}
